The source of these data is patent US20260207704A1, “STAPLED PEPTIDES AND METHODS THEREOF” (priority 2022, published 2026).

*1 amine or outer side, *2 acyl side, *3 side chain or, on linkers, in order; H or OH if unused. Bridges are numbered along the chain shown (N, C = ends). Primed or numbered codes have the meaning given here. [ ]: non-standard residue; d: D form. PyrS2(6) = (S)-3-amino-1-((pent-4-en-1-yloxy)carbonyl)pyrrolidine-3-carboxylic acid, stapled with another olefin-containing amino acid residue through the olefin group, O=C(OCCCC=[*:3])N1CC[C@@](N[*:1])(C(=O)[*:2])C1; B5(4) = 2-amino-2-(pent-4-en-1-yl)hept-6-enoic acid, stapled through each of its two olefin groups with other olefin-containing amino acid residues, O=C(C(CCCC=[*:3])(CCCC=[*:4])N[*:1])[*:2]; PyrS2(3) = (S)-3-amino-1-((pent-4-en-1-yloxy)carbonyl)pyrrolidine-3-carboxylic acid, olefin residue, C=CCCCOC(=O)N1CC[C@@](N[*:1])(C(=O)[*:2])C1; PyrS2(5) = (S)-3-amino-1-((pent-4-en-1-yloxy)carbonyl)pyrrolidine-3-carboxylic acid, C=CCCCOC(=O)N1CC[C@@](N[*:1])(C(=O)[*:2])C1; B5(5) = 2-amino-2-(pent-4-en-1-yl)hept-6-enoic acid (two olefin arms), C=CCCCC(CCCC=C)(N[*:1])C(=O)[*:2]; B5(3) = 2-amino-2-(pent-4-en-1-yl)hept-6-enoic acid, two olefin arms, C=CCCCC(CCCC=C)(N[*:1])C(=O)[*:2]; 2F3MeF″ = aromatic residue, Cc1cccc(C[C@H](N[*:1])C(=O)[*:2])c1F; Phe(3-COOH) = N[C@@H](Cc1cccc(C(=O)O)c1)C(=O)O; Bta = N[C@@H](Cc1csc2ccccc12)C(=O)O; αAllylPro = C=CC[C@@]1(C(=O)O)CCCN1; tBuAla = CC(C)(C)C[C@H](N)C(=O)O; 3Thi = N[C@@H](Cc1ccsc1)C(=O)O; Thr(ol) = C[C@@H](O)[C@H](N)CO; Nle = CCCC[C@H](N)C(=O)O; Orn = NCCC[C@H](N)C(=O)O; AsnR = not defined here; GlnR = not defined here; Aib = CC(C)(N)C(=O)O

For test [1], the target named is beta-catenin (human). Nature of the test: cell-based or functional assay.
Sequence of beta-catenin (human) (B6V8E6 146-665 limits assumed): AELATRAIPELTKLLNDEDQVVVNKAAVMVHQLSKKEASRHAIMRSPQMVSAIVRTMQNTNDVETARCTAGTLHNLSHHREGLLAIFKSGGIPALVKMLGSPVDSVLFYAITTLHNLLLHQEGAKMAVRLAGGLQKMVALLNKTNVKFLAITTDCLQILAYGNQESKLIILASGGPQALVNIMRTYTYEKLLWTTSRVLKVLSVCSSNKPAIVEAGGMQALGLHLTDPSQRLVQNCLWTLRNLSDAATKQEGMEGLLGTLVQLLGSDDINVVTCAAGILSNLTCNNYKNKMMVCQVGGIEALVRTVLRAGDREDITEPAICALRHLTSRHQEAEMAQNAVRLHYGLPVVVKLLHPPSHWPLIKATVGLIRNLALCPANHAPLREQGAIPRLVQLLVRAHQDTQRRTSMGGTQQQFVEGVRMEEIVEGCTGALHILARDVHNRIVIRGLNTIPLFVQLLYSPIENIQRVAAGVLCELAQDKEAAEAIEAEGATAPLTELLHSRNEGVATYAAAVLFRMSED
Test [2] has as its target beta-catenin (human). Nature of the test: fluorescence polarization. On the technique in general: Fluorescence polarisation rises when a labelled molecule tumbles more slowly, as on binding a larger partner.

B1: I-42 (peptide)
peptide: Ac-[αAllylPro]D[tBuAla][B5(5)]D[Phe(3-COOH)]AAFK[PyrS2(5)][3Thi][Bta][GlnR]A-NH2
modifications: bridge 10-14; reading uncertain; also: PL3/B5/PyrS2 staple links not placed, printed as Ac-PL3-Asp-Npg-B5-Asp-3COOHF-Ala-Ala-Phe-Lys*3-PyrS2-3Thi-BztA-GlnR*3-Ala-NH2
In turn, B1 gave a NanoBRET Abs IC50 (bin >1.5 uM) in test [1] of less than 3000 nM. The IC50 (commonly the concentration that inhibits the measured activity by half) in test [2] is less than 50 nM.

B2: I-63 (peptide)
peptide: Ac-[αAllylPro]D[tBuAla][B5(3)]D[Phe(3-COOH)]AAFK[PyrS2(3)][3Thi][Bta][GlnR][Thr(ol)]
modifications: bridge 10-14; not fully specified (bridges); printed as Ac-PL3-Asp-Npg-B5-Asp-3COOHF-Ala-Ala-Phe-Lys*3-PyrS2-3Thi-BztA-GlnR*3-Throl; reading uncertain
The molecule B2 registered a NanoBRET Abs IC50 (bin >3.0 uM) in test [1] of less than 10000 nM. This molecule also gave an IC50 in test [2] of less than 50 nM.

B3: I-34 (peptide)
peptide: Ac-[αAllylPro]D[tBuAla][B5(5)]D[Phe(3-COOH)]AAFK[PyrS2(5)][3Thi][Bta][AsnR]-NH2
modifications: bridge 10-14; not fully specified (bridges); printed as Ac-PL3-Asp-Npg-B5-Asp-3COOHF-Ala-Ala-Phe-Lys*3-PyrS2-3Thi-BztA-AsnR*3-NH2; reading uncertain
In turn, B3 had a NanoBRET Abs IC50 (bin >3.0 uM) in test [1] of less than 10000 nM. Besides, the half-inhibitory concentration (IC50) in test [2] is less than 50 nM.

B4: I-72 (peptide)
peptide: Ac-[αAllylPro]D[tBuAla][B5(3)]D[Phe(3-COOH)]TAFK[PyrS2(3)][3Thi][Bta][GlnR]A-NH2
modifications: bridge 10-14; not fully specified (bridges); printed as Ac-PL3-Asp-Npg-B5-Asp-3COOHF-Thr-Ala-Phe-Lys*3-PyrS2-3Thi-BztA-GlnR*3-Ala-NH2; reading uncertain
B4: the NanoBRET Abs IC50 (bin >1.5 uM) in test [1] is less than 3000 nM. The same molecule displayed an IC50 in test [2] of less than 50 nM.

B5: I-73 (peptide)
peptide: XDXXDXTAFKXXXQA
modifications: not fully specified; Ac-PL3-Asp-Npg-B5-Asp-3COOHF-Thr-Ala-Phe-Lys*3-PyrS2-2F3MeF-BztA-GlnR*3-Ala-NH2
B5: the NanoBRET Abs IC50 (bin >1.5 uM) in test [1] was less than 3000 nM. This molecule yielded an IC50 in test [2] of less than 50 nM.

B6: I-60 (peptide)
peptide: Ac-[αAllylPro]D[tBuAla][B5(3)]D[Phe(3-COOH)]QAFK[PyrS2(3)][2F3MeF″][Bta][GlnR]A-NH2
modifications: bridge 10-14; not fully specified (bridges); printed as Ac-PL3-Asp-Npg-B5-Asp-3COOHF-Gln-Ala-Phe-Lys*3-PyrS2-2F3MeF-BztA-GlnR*3-Ala-NH2; reading uncertain
In the case of B6, in test [1], the NanoBRET Abs IC50 (bin >3.0 uM) is less than 10000 nM. The molecule also showed an IC50 in test [2] of less than 50 nM.

B7: I-33 (peptide)
peptide: Ac-[αAllylPro]D[tBuAla][B5(4)]D[Phe(3-COOH)]AAF[GlnR][PyrS2(6)][3Thi][Bta]K-NH2
modifications: bridge 10-14; not fully specified (bridges); printed as Ac-PL3-Asp-Npg-B5-Asp-3COOHF-Ala-Ala-Phe-GlnR*3-PyrS2-3Thi-BztA-Lys*3-NH2; reading uncertain
In test [1], B7 gave a NanoBRET Abs IC50 (bin >3.0 uM) of less than 10000 nM. The same molecule displayed an IC50 in test [2] of less than 50 nM.

B8: I-71 (peptide)
peptide: Ac-[αAllylPro]D[tBuAla][B5(3)]D[Phe(3-COOH)][Nle]AFK[PyrS2(3)][2F3MeF″][Bta][GlnR]A-NH2
modifications: bridge 10-14; not fully specified (bridges); printed as Ac-PL3-Asp-Npg-B5-Asp-3COOHF-nLeu-Ala-Phe-Lys*3-PyrS2-2F3MeF-BztA-GlnR*3-Ala-NH2; reading uncertain
B8 gave a NanoBRET Abs IC50 (bin >1.5 uM) in test [1] of less than 3000 nM. Moreover, the IC50 in test [2] is less than 50 nM.

B9: I-68 (peptide)
peptide: Ac-[αAllylPro]D[tBuAla][B5(3)]D[Phe(3-COOH)][Aib]AFK[PyrS2(3)][2F3MeF″][Bta][GlnR]A-NH2
modifications: bridge 10-14; not fully specified (bridges); printed as Ac-PL3-Asp-Npg-B5-Asp-3COOHF-Aib-Ala-Phe-Lys*3-PyrS2-2F3MeF-BztA-GlnR*3-Ala-NH2; reading uncertain
B9: the NanoBRET Abs IC50 (bin >1.5 uM) in test [1] was less than 3000 nM. In test [2], the IC50 is less than 50 nM.

B10: I-57 (peptide)
peptide: Ac-[αAllylPro]D[tBuAla][B5(3)]D[Phe(3-COOH)]AAFK[PyrS2(3)][2F3MeF″][Bta][GlnR]A-NH2
modifications: bridge 10-14; not fully specified (bridges); printed as Ac-PL3-Asp-Npg-B5-Asp-3COOHF-Ala-Ala-Phe-Lys*3-PyrS2-2F3MeF-BztA-GlnR*3-Ala-NH2; reading uncertain
Consider B10, for which the NanoBRET Abs IC50 (bin >1.5 uM) in test [1] is less than 3000 nM. Further, in test [2], the IC50 was less than 50 nM.

B11: I-55 (peptide)
peptide: Ac-[αAllylPro]D[tBuAla][B5(3)]D[Phe(3-COOH)]AAFK[PyrS2(3)][2F3MeF″][Bta][GlnR]-NH2
modifications: bridge 10-14; not fully specified (bridges); printed as Ac-PL3-Asp-Npg-B5-Asp-3COOHF-Ala-Ala-Phe-Lys*3-PyrS2-2F3MeF-BztA-GlnR*3-NH2; reading uncertain
For the molecule B11, the NanoBRET Abs IC50 (bin >1.5 uM) in test [1] was less than 3000 nM. In test [2], this molecule yielded a half-inhibitory concentration (IC50) of less than 50 nM.

B12: I-38 (peptide)
peptide: Ac-[αAllylPro]D[tBuAla][B5(5)]D[Phe(3-COOH)]AAF[GlnR][PyrS2(5)][3Thi][Bta][Orn]-NH2
modifications: bridge 10-14; not fully specified (bridges); printed as Ac-PL3-Asp-Npg-B5-Asp-3COOHF-Ala-Ala-Phe-GlnR*3-PyrS2-3Thi-BztA-Orn*3-NH2; reading uncertain
B12: the NanoBRET Abs IC50 (bin >3.0 uM) in test [1] was less than 10000 nM. In test [2], this molecule returned an IC50 of less than 50 nM.

B13: I-56 (peptide)
peptide: Ac-[αAllylPro]D[tBuAla][B5(3)]D[Phe(3-COOH)]AAFK[PyrS2(3)][2F3MeF″][Bta][AsnR]-NH2
modifications: bridge 10-14; not fully specified (bridges); printed as Ac-PL3-Asp-Npg-B5-Asp-3COOHF-Ala-Ala-Phe-Lys*3-PyrS2-2F3MeF-BztA-AsnR*3-NH2; reading uncertain
Regarding B13, the NanoBRET Abs IC50 (bin >3.0 uM) in test [1] is less than 10000 nM. The molecule further registered a half-inhibitory concentration (IC50) in test [2] of less than 50 nM.

B14: I-32 (peptide)
peptide: Ac-[αAllylPro]D[tBuAla][B5(4)]D[Phe(3-COOH)]AAFK[PyrS2(6)][3Thi][Bta][GlnR]-NH2
modifications: bridge 10-14; not fully specified (bridges); printed as Ac-PL3-Asp-Npg-B5-Asp-3COOHF-Ala-Ala-Phe-Lys*3-PyrS2-3Thi-BztA-GlnR*3-NH2; reading uncertain
Molecule B14 yielded a NanoBRET Abs IC50 in test [1] of less than 1500 nM. In test [2], this molecule displayed an IC50 of less than 50 nM.

B15: I-61 (peptide)
peptide: Ac-[αAllylPro]D[tBuAla][B5(3)]D[Phe(3-COOH)]QAFK[PyrS2(3)][2F3MeF″][Bta][AsnR]A-NH2
modifications: bridge 10-14; not fully specified (bridges); printed as Ac-PL3-Asp-Npg-B5-Asp-3COOHF-Gln-Ala-Phe-Lys*3-PyrS2-2F3MeF-BztA-AsnR*3-Ala-NH2; reading uncertain
B15: in test [1], the NanoBRET Abs IC50 was greater than 10000 nM. In test [2], this molecule displayed an IC50 of less than 50 nM.

B16: I-64 (peptide)
peptide: Ac-[αAllylPro]D[tBuAla][B5(3)]D[Phe(3-COOH)]AAFK[PyrS2(3)][3Thi][Bta][GlnR]-Prool
modifications: bridge 10-14; not fully specified (bridges); printed as Ac-PL3-Asp-Npg-B5-Asp-3COOHF-Ala-Ala-Phe-Lys*3-PyrS2-3Thi-BztA-GlnR*3-Prool; reading uncertain
Take B16: the NanoBRET Abs IC50 (bin >1.5 uM) in test [1] was less than 3000 nM. Besides, the IC50 in test [2] was less than 50 nM.

B17: I-43 (peptide)
peptide: Ac-[αAllylPro]D[tBuAla][B5(5)]D[Phe(3-COOH)]AAF[GlnR][PyrS2(5)][3Thi][Bta]KA-NH2
modifications: bridge 10-14; reading uncertain; also: PL3/B5/PyrS2 staple links not placed, printed as Ac-PL3-Asp-Npg-B5-Asp-3COOHF-Ala-Ala-Phe-GlnR*3-PyrS2-3Thi-BztA-Lys*3-Ala-NH2
Molecule B17 returned a NanoBRET Abs IC50 (bin >1.5 uM) in test [1] of less than 3000 nM. The same molecule displayed an IC50 in test [2] of less than 50 nM.

B18: I-39 (peptide)
peptide: Ac-[αAllylPro]D[tBuAla][B5(5)]D[Phe(3-COOH)]AAF[Orn][PyrS2(5)][3Thi][Bta][AsnR]-NH2
modifications: bridge 10-14; not fully specified (bridges); printed as Ac-PL3-Asp-Npg-B5-Asp-3COOHF-Ala-Ala-Phe-Orn*3-PyrS2-3Thi-BztA-AsnR*3-NH2; reading uncertain
In test [1], B18 yielded a NanoBRET Abs IC50 greater than 10000 nM. In test [2], this molecule registered an IC50 of less than 50 nM.

B19: I-62 (peptide)
peptide: Ac-[αAllylPro]D[tBuAla][B5(3)]D[Phe(3-COOH)]AAFK[PyrS2(3)][3Thi][Bta][GlnR][Thr(ol)]
modifications: bridge 10-14; not fully specified (bridges); printed as Ac-PL3-Asp-Npg-B5-Asp-3COOHF-Ala-Ala-Phe-Lys*3-PyrS2-3Thi-BztA-GlnR*3-Throl; reading uncertain
As to B19, in test [1], the NanoBRET Abs IC50 (bin >3.0 uM) is less than 10000 nM. For the same molecule, in test [2], the 50% inhibitory concentration (IC50) is less than 50 nM.

B20: I-37 (peptide)
peptide: Ac-[αAllylPro]D[tBuAla][B5(5)]D[Phe(3-COOH)]AAF[Orn][PyrS2(5)][3Thi][Bta][GlnR]-NH2
modifications: bridge 10-14; not fully specified (bridges); printed as Ac-PL3-Asp-Npg-B5-Asp-3COOHF-Ala-Ala-Phe-Orn*3-PyrS2-3Thi-BztA-GlnR*3-NH2; reading uncertain
Molecule B20 yielded a NanoBRET Abs IC50 (bin >3.0 uM) in test [1] of less than 10000 nM. For the same molecule, the IC50 in test [2] was less than 50 nM.
